These results are taken from PMC1636418.

Common to all, as to assay: EMSA
In general terms: In EMSA bound probe runs differently from free probe, usually more slowly.

One data set addresses T1, ZαβADAR1 (Homo sapiens, UniProt P55265 133-368).
T1 sequence: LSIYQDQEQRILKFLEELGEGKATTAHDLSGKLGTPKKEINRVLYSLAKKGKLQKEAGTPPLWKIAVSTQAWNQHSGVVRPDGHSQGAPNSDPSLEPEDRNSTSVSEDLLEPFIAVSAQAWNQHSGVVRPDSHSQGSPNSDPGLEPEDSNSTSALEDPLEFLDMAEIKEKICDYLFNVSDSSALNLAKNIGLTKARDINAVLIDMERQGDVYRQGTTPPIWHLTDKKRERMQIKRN

A further data set deals with T2, ZαβZBP1 Y50A (Homo sapiens, UniProt Q9H171 4-167, Y50A).
T2 sequence: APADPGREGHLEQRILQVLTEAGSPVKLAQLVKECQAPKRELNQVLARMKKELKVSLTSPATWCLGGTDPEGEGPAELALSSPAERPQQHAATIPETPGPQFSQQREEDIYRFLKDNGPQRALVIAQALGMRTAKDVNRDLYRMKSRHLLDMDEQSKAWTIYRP

The target in another data set is T3, ZαβZBP1 N141D/Y145A (Homo sapiens, UniProt Q9H171 4-167, N141D;Y145A).
T3 sequence: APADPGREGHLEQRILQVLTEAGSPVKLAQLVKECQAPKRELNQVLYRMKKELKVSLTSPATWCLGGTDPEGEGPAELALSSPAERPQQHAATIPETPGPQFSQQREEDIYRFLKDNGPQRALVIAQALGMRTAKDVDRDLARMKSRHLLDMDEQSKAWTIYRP

In the next data set the target is T4, ZαβZBP1 N46D/Y50A (Homo sapiens, UniProt Q9H171 4-167, N46D;Y50A).
T4 sequence: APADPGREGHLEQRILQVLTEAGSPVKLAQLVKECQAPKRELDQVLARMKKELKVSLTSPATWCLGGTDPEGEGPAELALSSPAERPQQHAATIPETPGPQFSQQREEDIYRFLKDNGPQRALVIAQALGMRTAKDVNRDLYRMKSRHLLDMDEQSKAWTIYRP

The target of the next data set is T5, ZαβZBP1 N46D (Homo sapiens, UniProt Q9H171 4-167, N46D).
T5 sequence: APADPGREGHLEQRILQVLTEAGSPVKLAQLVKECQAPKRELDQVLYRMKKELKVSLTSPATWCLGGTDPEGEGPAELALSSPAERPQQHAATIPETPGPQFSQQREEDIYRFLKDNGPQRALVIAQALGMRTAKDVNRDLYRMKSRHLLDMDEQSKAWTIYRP

Data set [1] concerns the target T6, ZαβZBP1 N46D/Y50A/N141D/Y145A (Homo sapiens, UniProt Q9H171 4-167, N46D;Y50A;N141D;Y145A).
T6 sequence: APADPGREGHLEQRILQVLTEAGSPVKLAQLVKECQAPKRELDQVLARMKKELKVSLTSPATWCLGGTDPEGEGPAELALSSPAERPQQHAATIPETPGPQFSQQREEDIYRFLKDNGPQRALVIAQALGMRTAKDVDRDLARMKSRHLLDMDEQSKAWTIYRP

The next data set has as its target T7, ZβZBP1 (Homo sapiens, UniProt Q9H171 4-10+87-167, internal_change).
T7 sequence: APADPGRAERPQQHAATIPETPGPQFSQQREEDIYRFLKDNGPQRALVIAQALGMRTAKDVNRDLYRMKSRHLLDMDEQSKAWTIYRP

In a further data set the target is T8, ZαZBP1 (Homo sapiens, UniProt Q9H171 4-86).
T8 sequence: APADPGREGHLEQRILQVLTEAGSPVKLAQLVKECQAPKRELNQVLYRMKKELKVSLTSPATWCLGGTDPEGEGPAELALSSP

The target in the next data set is T9, ZαβZBP1 (Homo sapiens, UniProt Q9H171 4-167).
T9 sequence: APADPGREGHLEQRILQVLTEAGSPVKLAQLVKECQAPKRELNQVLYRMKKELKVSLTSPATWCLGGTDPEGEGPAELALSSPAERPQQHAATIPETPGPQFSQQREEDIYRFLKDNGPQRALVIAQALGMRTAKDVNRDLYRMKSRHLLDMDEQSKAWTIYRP

B1: (dC-dG)20 (dsDNA)
DNA 1: CGCGCGCGCGCGCGCGCGCGCGCGCGCGCGCGCGCGCGCG
DNA 2: CGCGCGCGCGCGCGCGCGCGCGCGCGCGCGCGCGCGCGCG
B1: the binding result in the data set with ZαβADAR1 is “binds”; with ZαβZBP1 Y50A, “no binding”; in the data set with ZαβZBP1 N141D/Y145A, “no binding”; in the data set with ZαβZBP1 N46D/Y50A, “no binding”; with ZαβZBP1 N46D, “no binding”; in data set [1], “no binding”. Moreover, the binding result with ZβZBP1, in the data set with ZαZBP1 and with ZαβZBP1 was “binds” in each case.
